Results from patent publication US20220220224A1 (Hoffmann-La Roche, published 2022).
Positions count from the first letter of the chain named. Names and notes keep the numbering of the source. Like-named read-outs stand apart in the source and are kept apart here.

Tests used:
[1] = biological target: T1, human FolR1 expressed on cells (HeLa, SKOV3, HT-29, transfected HEK cells) (human, UniProt P15328 25-234); assay: cell-based or functional assay
[2] = biological target: T1, human FolR1 expressed on cells (HeLa, …); assay: cell-based or functional assay; remark: listed apart in the source
[3] = biological target: T2, recombinant biotinylated monomeric Fc fusion of human Folate Receptor 1 (huFolR1 ECD-AcTev-Fcknob-Avi tag … (human, UniProt P0DOX5 223-449 = IgG part, biotin on the C-terminal Avi tag)); assay: SPR Biacore, avidity (bivalent)
T2 construct: also called huFolR1-Fc; human FolR1-Fc

[4] = biological target: T2, recombinant biotinylated monomeric Fc …; assay: SPR Biacore, affinity (monovalent)
[5] = biological target: T3, recombinant biotinylated monomeric Fc fusion of murine Folate Receptor 1 (mu FolR1 ECD-AcTev-Fcknob-Avitag … (murine, UniProt P0DOX5 223-449 = IgG part, biotin on the C-terminal Avi tag)); assay: SPR Biacore, single injection on immobilized antigen-Fc
T3 construct: also called muFolR1-Fc; murine FolR1
Description: (§1) All SPR experiments were performed on a Biacore T200 at 25° C. with HBS-EP as running buffer (0.01 M HEPES pH 7.4, 0.15 M NaCl, 3 mM EDTA, 0.005% Surfactant P20, Biacore, GE Healthcare). The molecules used for affinity and avidity determination are described in Table 45.
(§2) First the anti-FolR1 TCBs were analyzed by single injections (Table 46) to characterize their crossreactivity (to human, murine and cyno FolR1) and specificity (to human FolR1, human FolR2, human FolR3). Recombinant biotinylated monomeric Fc fusions of human, cynomolgus and murine Folate Receptor 1 (FolR1-Fc) or human Folate Receptor 2 and 3 (FolR2-Fc, FolR3-Fc) were directly coupled on a SA chip using the standard coupling instruction (Biacore, Freiburg/Germany). The immobilization level was about 300-400 RU. The TCBs were injected for 60 seconds at a concentration of 500 nM.

[6] = biological target: T4, recombinant biotinylated monomeric Fc fusion of human Folate Receptor 2 (hu FolR2 ECD-AcTev-Fcknob-Avi tag … (human, UniProt P0DOX5 223-449 = IgG part, biotin on the C-terminal Avi tag)); assay: as above
T4 construct: also called FolR2-Fc
Description: as §1, §2

[7] = biological target: T5, recombinant biotinylated monomeric Fc fusion of human Folate Receptor 3 (hu FolR3 ECD-AcTev-Fcknob-Avi tag … (human, UniProt P0DOX5 223-449 = IgG part, biotin on the C-terminal Avi tag)); assay: as above
T5 construct: also called FolR3-Fc
Description: as §1, §2

[8] = biological target: T2, recombinant biotinylated monomeric Fc …; assay: SPR Biacore, affinity (monovalent), antibody captured via anti-Fab
Description: as §1
(§3) For affinity measurement, direct coupling of around 12000 resonance units (RU) of the anti-human Fab specific antibody (Fab capture kit, GE Healthcare) was performed on a CM5 chip at pH 5.0 using the standard amine coupling kit (GE Healthcare). Anti-FolR1 T cell bispecifics were captured at 20 nM with a flow rate of 10 μl/min for 40 sec, the reference flow cell was left without capture. […] The dissociation phase was monitored for 300 s and triggered by switching from the sample solution to HBS-EP. The chip surface was regenerated after every cycle using a double injection of 60 sec 10 mM Glycine-HCl pH 2.1. Bulk refractive index differences were corrected for by subtracting the response obtained on the reference flow cell 1. The affinity constants for the interactions were derived from the rate constants by fitting to a 1:1 Langmuir binding using the Bia Evaluation software (GE Healthcare). For low affinity kinetics with association and dissociation phases too fast to be fitted by the 1:1 Langmuir binding model, the steady state analysis model was applied using the Bia Evaluation software (GE Healthcare). The steady state analysis gives the KD of the binding reaction at equilibrium.

[9] = biological target: T6, recombinant biotinylated monomeric Fc fusion of cynomolgus Folate Receptor 1 (cy FolR1 ECD-AcTev-Fcknob-Avi … (cynomolgus, UniProt P0DOX5 223-449 = IgG part, biotin on the C-terminal Avi tag)); assay: as above
T6 construct: also called cyFolR1-Fc; cyno FolR1
Description: as §1, §3

[10] = biological target: T2, recombinant biotinylated monomeric Fc …; assay: SPR Biacore, avidity (bivalent, apparent KD), antigen-Fc on SA chip
Description: as §1
(§4) Recombinant biotinylated monomeric Fc fusions of human, cynomolgus and murine Folate Receptor 1 (FolR1-Fc) were directly coupled on a SA chip using the standard coupling instruction (Biacore, GE Healthcare). The immobilization level was about 200-300 RU. […] The dissociation was monitored for 240 or 600 seconds. The chip surface was regenerated after every cycle using a double injection of 30 sec 10 mM Glycine-HCl pH 1.5. Bulk refractive index differences were corrected for by subtracting the response obtained on reference flow cell immobilized with recombinant biotinylated murine IL2R Fc fusion (unrelated Fc fused receptor). The binding curves resulting from the bivalent binding of the T cell bispecifics were approximated to a 1:1 Langmuir binding (even though it is a 1:2 binding) and fitted with that model to get an apparent KD representing the avidity of the bivalent binding. The apparent avidity constants for the interactions were derived from the rate constants of the fitting using the Bia Evaluation software (GE Healthcare).

[11] = biological target: T6, recombinant biotinylated monomeric Fc …; assay: as above
Description: as §1, §4

[12] = biological target: T4, recombinant biotinylated monomeric Fc …; assay: SPR Biacore, single injection on immobilized antigen-Fc; remark: listed apart in the source
Procedure, shortened: (§5)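 Biacore T200 at 25 °C in HBS-EP (HEPES pH 7.4). Biotinylated FolR-Fc fusions captured on SA chip at about 300-400 RU. IgGs injected once at 500 nM for 60 s to assess cross-reactivity and specificity.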

[13] = biological target: T5, recombinant biotinylated monomeric Fc …; assay: as above; remark: listed apart in the source
Procedure, shortened: as §5

[14] = biological target: T3, recombinant biotinylated monomeric Fc …; assay: SPR Biacore, single injection 500 nM on immobilized antigen-Fc
Description: Binding of FolR1 binders as IgG or in the T-cell bispecific format to different recombinant folate receptors (human FolR1, 2 and 3, murine FolR1 and cynomolgus FolR1; all as Fc fusions) was assessed by surface plasmon resonance (SPR). All SPR experiments were performed on a Biacore T200 at 25° C. with HBS-EP as running buffer (0.01 M HEPES pH 7.4, 0.15 M NaCl, 3 mM EDTA, 0.005% Surfactant P20, Biacore, Freiburg/Germany).
as §2, with “IgGs” for “TCBs”, “1)” for “46)”

[15] = biological target: T2, recombinant biotinylated monomeric Fc …; assay: SPR Biacore, avidity set-up, steady state
Description: (§6) The avidity of the interaction between the anti-FolR1 IgGs or T cell bispecifics and the recombinant folate receptors was determined as described below (Table 41).
(§7) Recombinant biotinylated monomeric Fc fusions of human, cynomolgus and murine Folate Receptor 1 (FolR1-Fc) were directly coupled on a SA chip using the standard coupling instruction (Biacore, Freiburg/Germany). The immobilization level was about 300. […] The dissociation was monitored for 240 or 600 seconds. Bulk refractive index differences were corrected for by subtracting the response obtained on reference flow cell immobilized with recombinant biotinylated murine IL2 receptor Fc fusion. The binding curves resulting from the bivalent binding of the IgG or T cell bispecifics were approximated to a 1:1 Langmuir binding (even though it is a 1:2 binding) and fitted with that model to get an apparent KD representing the avidity of the bivalent binding. The apparent avidity constants for the interactions were derived from the rate constants of the fitting using the Bia Evaluation software (GE Healthcare). For low affinity kinetics with association and dissociation phases too fast to be fitted by the 1:1 Langmuir binding model, the steady state analysis model was applied using the Bia Evaluation software (GE Healthcare). The steady state analysis gives the KD of the binding reaction at equilibrium.

[16] = biological target: T6, recombinant biotinylated monomeric Fc …; assay: SPR Biacore, avidity set-up, steady state
Description: as §6, §7

[17] = biological target: T1, human FolR1 expressed on cells (HeLa, …); assay: cell-based or functional assay; remark: listed apart in the source

T1 sequence (P15328 25-234): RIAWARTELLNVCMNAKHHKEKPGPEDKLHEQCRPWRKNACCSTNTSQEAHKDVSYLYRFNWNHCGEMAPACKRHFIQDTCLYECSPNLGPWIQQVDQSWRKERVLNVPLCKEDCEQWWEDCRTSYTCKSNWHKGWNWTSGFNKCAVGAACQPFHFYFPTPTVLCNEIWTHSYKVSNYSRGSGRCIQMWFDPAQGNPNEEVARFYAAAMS

B1: 16D5 G49S/S93A TCB (2+1 inverted, common light chain) (bispecific antibody, V domains shown)
VH 1: not shown
VL: QTVVTQEPSLTVSPGGTVTLTCGSSTGAVTTSNYANWVQQKPGQAPRGLIGGTNKRAPGTPARFSGSLLGGKAALTLSGVQPEDEAEYYCALWYANLWVFGGGTKLTVL
VH 2: not shown
In the case of B1, the “EC50 of T-cell killing of Hela, 24 h” value [1] is reported as 0.0023 nM, the “EC50 of T-cell killing of SKov-3, 24 h” value [1] is reported as 0.43 nM and the “EC50 of T-cell killing of HT-29, 48 h” value [2] is reported as 0.0993 nM. The “EC50 of T-cell killing of Hela, 48 h” value [2] was 0.0009 nM, the “EC50 of T-cell killing of SKov-3, 48 h” value [2] was 0.0959 nM and the “fold lower avidity than 16D5 WT (3 nM)” value [3] was 3 fold. The “fold lower affinity than 16D5 WT (57 nM)” value [4] was 14.5 fold, the binding result [5] was “no binding (tested: 500 nM)” and the binding result [6] was “no binding (tested: 500 nM)”. The binding result [7] was “no binding (tested: 500 nM)”, the Kd [8] was 830 nM and the koff [8] was 0.00837 s⁻¹. The kon [8] was 10100 M⁻¹ s⁻¹, the Kd [9] was 420 nM and the koff [9] was 0.0086 s⁻¹. The kon [9] was 20500 M⁻¹ s⁻¹, the Kd [10] was 10 nM and the koff [10] was 0.00209 s⁻¹. For the same binder, the kon [10] was 149000 M⁻¹ s⁻¹, the Kd [11] was 20 nM and the koff [11] was 0.00784 s⁻¹. The kon [11] was 454000 M⁻¹ s⁻¹.

B2: 20H7 IgG (antibody, V domains shown)
VH: QVQLVQSGAEVKKPGASVKVSCKASGYTFTSYYMHWVRQAPGQGLEWMGIINPSGGSTSYAQKFQGRVTMTRDTSTSTVYMELSSLRSEDTAVYYCARVGWYRWGYMDYWGQGTLVTVSS
VL: B1 VL with T2A, Q40E, P46F, V80A, A95S
notes: human IgG1
B2: no binding (tested: 500 nM) [12]; no binding (tested: 500 nM) [13]; binds [14].

B3: 16D5 IgG variant W96Y/K53A (HC/LC) (antibody, V domains shown)
VH: not shown
VL: B1 VL with K55A, A95S
notes: IgG
B3 showed a Kd [15] of 580 nM and a Kd [16] of 660 nM.

B4: 9D11 TCB S100aA (CD3 deamidation variant) (bispecific antibody, human IgG1, kappa, L234A L235A)
heavy 1: not shown
heavy 2: QVQLVQSGAEVKKPGASVKVSCKASGYTFTSYYMHWVRQAPGQGLEWMGIINPSGGPTSYAQKFQGRVTMTRDTSTSTVYMELSSLRSEDTAVYYCARGDFAWLDYWGQGTLVTVSSASTKGPSVFPLAPSSKSTSGGTAALGCLVKDYFPEPVTVSWNSGALTSGVHTFPAVLQSSGLYSLSSVVTVPSSSLGTQTYICNVNHKPSNTKVDKKVEPKSCDKTHTCPPCPAPEAAGGPSVFLFPPKPKDTLMISRTPEVTCVVVDVSHEDPEVKFNWYVDGVEVHNAKTKPREEQYNSTYRVVSVLTVLHQDWLNGKEYKCKVSNKALGAPIEKTISKAKGQPREPQVCTLPPSRDELTKNQVSLSCAVKGFYPSDIAVEWESNGQPENNYKTTPPVLDSDGSFFLVSKLTVDKSRWQQGNVFSCSVMHEALHNHYTQKSLSLSPGK
light 1: not shown
light 2: QAVVTQEPSLTVSPGGTVTLTCGSSTGAVTTSNYANWVQEKPGQAFRGLIGGTNKRAPGTPARFSGSLLGGKAALTLSGAQPEDEAEYYCALWYSNLWVFGGGTKLTVLSSASTKGPSVFPLAPSSKSTSGGTAALGCLVKDYFPEPVTVSWNSGALTSGVHTFPAVLQSSGLYSLSSVVTVPSSSLGTQTYICNVNHKPSNTKVDKKVEPKSC
For B4, the “EC50 of T-cell killing of SKov-3, 24 h” value [17] was 0.00194 nM.
